Experiment: soluble on expression in E. coli; label from the status in PepcDB or PDB records

Sequence	soluble on expression in E. coli
MHFYKYGVLIDQLRDSFEWRVAFLDGSVSDHCCITVPSEKFNFPPTPGATVKAKFEHANSFLPSLVAQCGSFEWFRDVTVVNSKVVIFAIVHFSNECLERDPFKINGMDYSIIENENTDFQKIVLPTRVLQTSITSRSNLQNTDTPFIYRIGVCWEPISFENGVTVNWRYYADFPITPIFELYYRETTLPYIAESMVYGVLEGVVIAENDHGALFWTPKMGCAILPSTSLDTPMPSLGSVHVILVKRCIPENSFGFSCSYELLSSFRSTEWPNLKVITDQITRKVYIEANASCRSMMENQDFPSMNVPHIGKVFRGLQQYRDKLSAGHLYDFRMEFQKEEGSFVPTIVDLCLEEDEMVDCRVVYISNETSTYFAVLDPSSNSFDRFKQSIDYIAIPFRVLFCANGVHVKNEELLLNSYKVRVRVPRNRHDVVNAIHVEHVIQSPKDPAYFITNGSVWLRTTVKFQNASRYELLCPLLEQKIIDVNGVTAAMSLTQEFTVHAQFVLMERNVPVFVVRQLASTVREHPRTTNYPSRSLNLSYEVSGALARTNPNGQLSAADNNIVLINDSISLDHNLPDTGEYPTILNESSFERQLLFDNQSIADSASTSGDFILTESVYESSSAASTCTVIDRNDARFSALNDDSNILISESWLDSTNQHSETTMDTPEIITESFYESTHDQASSRASTVDRLASDVDKISIGRPDYSPPPRRRIFGYSTPGDRVRPRNSYGSSSSGSLNGRPKRRAPYGFRQIRNITPHNVLLRDIIYNNINNRKMFVEQNKNAILKCWNRLPLAQVTRTKKIFCTVIAVESIKFPPSFDDTCIKGLVRFAVVYDDMNVKNTSVVVPIGGNFNNLPKSFQLGDAYKVFHFSSYKDLICRIGGFSHGLNGELSRVAPVNCISNPETVNGRYGQRYLRCTVNAARPAISEIESDVFELWTVHGLPGFIIVEKVPLLMNHLNKEPINPDVHHQHMYTCIIEPLAGGPVEASILKDVKEGEDICIFWRLVVEFSDTVPLPRLKEKTDKVVPQIRTEPVQSGTFSVDDYGCWETLRINSILAQEKLDRMRAVGDPRVKMIDGPDLRPEIEVRKVDVNTRREKMFAAFDALLEKLPQLHSEGILGYVLEDDLRVKIKKLTPMNDNNHKFTFTFRNGSLEIGVNYLTDMLTRGKIYKVMNEMKKHVPLLKVLSDCIGLNTTYIKKTDAVKMMLHYMYRNELHTYL	not soluble
MGSDKIHHHHHHMVDNPGNLNSFRALALQVTCHAVNQASDRQEAGLMMHNTINRLAQQIAASIAFIGFDCRLIVLPEYFLTGFPMGEPLQVWADKACLEINGAEYEALGMIAQKQQIFLAGNAYELDPNFPGLYFQTCFVIDPSGSVVLRYRRLNSLFAPTPHDVWDKYLDCYGLEGVFPVAKTAIGNLAALASEEILYPEVARCLAMRGAEIFLHSTSEVYSKNLTPKDAAKITRAVENMAYVVSANSAGLANSAIPIGSVDGGSKIIDHRGIILAETGPGESMAAFAEIDLAALRRDRTRPGLNNLLSRQRFEMYAQSYSQAKFYPANTMLNKEIERKHFIQTQQETIERLTRLGII	not soluble
PKIAGIDLGTTYSSIGIYHAVTGETIILPDDLGKKSVPSVVAFLPNGTVLIGTRATEQQEHNPKRTIYDAKRFIGRNFEKNNKDFLSDQKRYPFKINLDSEGKAFFEIPLDSGTKNVYPEEIGSLIIGYLKSAAAKHLGVTLGQVVISCPAEFNEKQRNFTAKAAEIAEMEVRRVISEPTAAALAYGLHKKQGVENVVVVDLGGGTLDVSVLWLQGGVFVTQAMAGNNRLGGQDFNDRVQKHLISKIAEKFGKTIDNKEDIQQIRMEVEKGKIRLTNVPSTTISLNLKTVGKWNYELTRDEFETLNGDLLKAIELPITAALADANLDTADVDEIVLVGGSTQVPAVRKIVGRFFKKSANYGVDPELAVVTGASVQAGVIGGGWPLQVAAMELPAKRRKRHFFTEEQKENEKDRTISEL	not soluble
MAHHHHHHMKNKSIRKERQSGETLEDNIEEINYCIKVIPKDKINSKGNGAIRLSNLDMNRSNNGNYYNQNNNVENINDFETECRNYIEDILKIDEYVKLPNSINNEQDKIKWKKAHSLRNRMKEYDLITRTRLYQSNSVNNKAKLNRERYIILNKIPRYREAFPSIMNNTSTDKIKEDIIRTYLKTHAAYFLSQNKKNSNLSLKNMGRNTYFSFRKKSDDRNNSLINYNKHMNDKSKSVEHNNCPNLKKKDRSYNLWKRITVDDIKNTHFTPTEKQYLKDYNIFLNDAFNNFKINQNNNKRQLNVKNQKNIPNYDMINNKIYGHIKNNANNNLYINNQKREDAYIINPSQNNIITSPNEEQYPYFNNYSYSDKNKNLSTYNTEGKRNIYTNDVKSNTNYQHSNNSNYSDESLNMFSNSSTSIYEKYNLKDKNFVLKRDRYALLGKIKNNKEIEVKLVLNKV	not soluble
MGSDKIHHHHHHMKSTGNIIADTICRTAELGLTITGASDAGDYTLIEADALDYTSTCPECSQPGVFRHHTHRMLIDLPIVGFPTKLFIRLPRYRCTNPTCKQKYFQAELSCADHGKKVTHRVTRWILQRLAIDRMSVHATAKALGLGWDLTCQLALDMCRELVYNDPHHLDGVYVIGVDEHKWSHNRAKHGDGFVTVIVDMTGHRYDSRCPARLLDVVPGRSADALRSWLGSRGEQFRNQIRIVSMDGFQGYATASKELIPSARRVMDPFHVVRLAGDKLTACRQRLQREKYQRRGLSQDPLYKNRKTLLTTHKWLSPRQQESLEQLWAYDKDYGALKLAWLAYQAIIDCYQMGNKREAKKKMRTIIDQLRVLKGPNKELAQLGRSLFKRLGDVLAYFDVGVSNGPVEAINGRLEHLRGIALGFRNLNHYILRCLIHSGQLVHKINAL	not soluble
MGSDKIHHHHHHMTEFAIELTGINKSFGAVKANRDVTMSVPKGSIHGIIGENGAGKSTLMSILYGYYHADSGTIRVNGKDVRIRNSQEAIRLGIGMVHQHFMLVETFTVLENIVLGAEGGRLLKGGMEQAREHLKELNKNYSLEVDPDALVGDLGVGLQQRVEILKALYRGADVLILDEPTAVLTPQEADHLFHILRSLKAQGKTVILITHKLREVMDITDNVSVMRAGTVVDNVRTCDVDKEKLADLMVGRKVSLKVDKADSQAGAAVLDVQGLTLIDERKVKLLDNLNFQVRAGEIVGIAGVSGNGQSELLEVLAGMRDPSAGAVVYKGEDLLKLPCRRKPRAAVYRQRGIGHIPEDRSREGLVKAFSTFENAILGYHDDKTLNSGPLYSRKKLVERTRDFIAQFDIRPGNPLLRVGLLSGGNQQKVVLAREIHANPDLLLIGQPTRGVDIGAIEFIHKRLIELRDEGKAILLVSVELEEILALSDRILVMAGGQITGEVAAKDADTISLGLLMGGHKH	not soluble
RVETQPEVQLPGPAPNLRAYAASPTSITVTWETPVSGNGEIQNYKLYYMEKGTDKEQDVDVSSHSYTINGLKKYTEYSFRVVAYNKHGPGVSTPDVAVRTLSD	soluble
MAHHHHHHMNPLYTDSISYSASDANITLPQQSMPQWANTNATASRVSAAPATAGEQAQQGNFASSLNSAGGFSVHVGSDAARSTLCSPKIATESLTAAAATTTTTKATTAVRRAPFLNPPPQQPLSGTRNRLSAPGSPAMYRSGPPIGFGGGPNYYYQYGGNTFIQDGKQQENEYYPPLPMSTPFHPVTAITKLVPLPHPKTGRGGIPAIFRFWGPIGSPAPRTPVPVPSLPNAGGVAATVFLAAIPISLVPQQMHPLSPRHPATGGSPAASSPLGGGESMGMSLVEVHHHSNGSSLGAGSPTAPAITPAPATAAAGASAVNLTVRVRRRTGGGNTAAIRVGGGASLAPLQLPSQGTSSLGASLTTLATTGPAKGPGTPFKHSPITPSNLPPAPLFAQSAPAQLLVDDSGSQRLSPTSMLPTNLVNEGSKTKGESVLRVDEDTYMQREAFRWNPYASTKWAQNRSNSTGASTSDSRGRLPVEGGSGSG	soluble
MAHHHHHHMDTSARRCFVEVYTDGCDEPRLLQLEPTVKFHNVLRRFDKDGDLYWGDHRIDPQTTPVAVGMDCGVDKANTLWFIPALPRAKPCGVSRVDSTAPLGSPPPVDATEGPALRPARGTSLPAYFDDRAAPWHSSGDHAARGSLIRAWMASASAATTPSWYSRPRLLSPVPLSLPRSAVRVPHTQVQPPSGMPTDPIMHAAGGSRHTGAPVAALEAHGGEKIAPVRRLCAAPAPRAPSPPHSTVPVRRNAPVCIDPHVLVDDTSDAVEALQTELRHLSSEMRAMRLRNPLDYNSVTPMRQVVVRPAGMDAAPAIASPICLSMAEPSVEELATELHDKQMHRLYKQRHLYLTHDFHV	not soluble
VDFHGYARSGIGWTGSGGEQQCFQTTGAQSKYRLGNECETYAELKLGQEVWKEGDKSFYFDTNVAYSVAQQNDWEATDPAFREANVQGKNLIEWLPGSTIWAGKRFYQRHDVHMIDFYYWDISGPGAGLENIDVGFGKLSLAATRSSEAGGSSSFASNNIYDYTNETANDVFDVRLAQMEINPGGTLELGVDYGRANLRDNYRLVDGASKDGWLFTAEHTQSVLKGFNKFVVQYATDSMTSQGKGLSQGSGVAFDNEKFAYNINNNGHMLRILDHGAISMGDNWDMMYVGMYQDINWDNDNGTKWWTVGIRPMYKWTPIMSTVMEIGYDNVESQRTGDKNNQYKITLAQQWQAGDSIWSRPAIRVFATYAKWDEKWGYDYTGNADNNANFGKAVPADFNGGSFGRGDSDEWTFGAQMEIWW	soluble
MGHHHHHHSHMIDKATGILLYGLASRLRDTRRLSFLVSYIASKKIHTEPQLSAALEYVRSHPLDPIDTVDFERECGVGVIVTPEQIEEAVEAAINRHRPQLLVERYHFNMGLLMGEARAVLKWADGKMIKNEVDMQVLHLLGPKLEADLE	soluble
VPGVWSPPCPTTPRVGVVAALVAATLTGCGSGDSTVAKTPEATPSLSTAHPAPPSSEPSPPSATAAPPSNHSAAPVDPCAVNLASPTIAKVVSELPRDPRSEQPWNPEPLAGNYNECAQLSAVVIKANTNAGNPTTRAVMFHLGKYIPQGVPDTYGFTGIDTSQCTGDTVALTYASGIGLNNVVKFRWNGGGVELIGNTTGG	soluble
MGIHLFWDSRVPVGLSRPVSEELSAVLEMPVSRIDDGIFPLEGFDPVRNQYDAVKVLLKLDMFRRRMPQIFKPADMDLEFYNKFNHLHEKILLVTPGDLYEPLADFVFGLAYPKLGVAIVSPHRLQNEFYGKYADDSALIDRIVKEGAHEIGHLFGLGHCDNPGCIMYCPRNLDELDRKRKYFCGKCRVQLNGDTLEDDLFSLEHHHHHH	soluble
MGSDKIHHHHHHMKIMVSEQFQCFMASLGVDLNSLLEAAGINKVVWQEQLMLSDVEYWQLMNEFDNQLTDEMILSLGNITNINTFMPSFFAALAAKNGEQAIARMATYKSLAGPVHLEIVTKPDIVNIHILGNSLGVELPRFTIMTEQLLLISLLRVGTGKLIKPISVGSKYPYGDQIDAVMGIRPQQLADNCIQFQVTDLQRAFISANNSMWAFLQPGLDQQKLAIEHNQSLLATVQALLLKKIPSGSFSIDEIATSLNLSKRTLQRHLSTLSTTFNDEVQIARRTLVVPLMKDQSLNLIEISYLLGYSDPESFSRAFKKWFHQSPSVYRQQSLGMFKN	not soluble
MSNLNNLTSKILNDAEEKKKYILADAEAQKDKIISKKTNRAEADKEEIITKANIEAEVKKARIISNAKLSVRNDMLRAKQDVISKVFNEAIEKLQNLSNGDYKYYVISTLDSLELEGTEVIIINEKDKDIFSNEFLEALNKELESKGKKGSITLNMEGKFNGGFILDRNGIQINNTFEALINSLRGELEFEVNKVLFDLEHHHHHH	soluble
MGSDKIHHHHHHMKIVYCIAGTYNSGGMERVLANKANYLVSHGYEVVIITTDQREKQSFFELDQRINCCDLRINYEENNGKSFLNKLANYPFKQWKHRKRLTACLKQLKADIVVSMFCNDASFLWKIDDGSKKVLEIHFSRYKRLQYGRKGVWKIADRWRSRMDERTVRKYDRFVVLTAEDKAYWGNLSNMIVIPNALSHSTTELHLSPLTARKVIAIGRYGYQKGFDYLIEAWEIIHCAQPAWTLDIIGDGEWTDRLQRQIKRKRLNHCVFLKPPTGQIEEEYRQASLLVLSSRYEGLPMVLLEAQSFGLPIVSFACKCGPGDVITDGKNGFLVSVGNLPMLADRIMRLMEDEGLRKRMGMNAYHNSKTFSEERIMQCWIDMFDKLVSQR	not soluble
MEVNKKQLADIFGASIRTIQNWQEQGMPVLRGGGKGNEVLYDSAAVIKWYAERDAEIENEKLRREVEE	soluble

Reference: the DeepSol protein solubility set
